{
  "source": "paper PMC10966104",
  "key": {"[1]": {"molecular_target": "tail terminator gp8 of cyanophage A-1(L) (cyanophage A-1(L))", "test": "cryo-EM structure; intact A-1(L) particles purified from infected Anabaena sp. PCC 7120, in SM buffer (50 mM Tris-HCl pH 7.5, 10 mM MgSO4, 100 mM NaCl); local reconstructions of portal, gp5-neck fiber, gp7-terminator, sheath-tube, baseplate and tail fibers"}, "[2]": {"molecular_target": "neck protein gp5 of cyanophage A-1(L) (cyanophage A-1(L))", "test": "cryo-EM structure; intact A-1(L) particles purified from infected Anabaena sp. PCC 7120, in SM buffer (50 mM Tris-HCl pH 7.5, 10 mM MgSO4, 100 mM NaCl); local reconstructions of portal, gp5-neck fiber, gp7-terminator, sheath-tube, baseplate and tail fibers"}, "[3]": {"molecular_target": "baseplate hub gp15 of cyanophage A-1(L) (cyanophage A-1(L))", "test": "cryo-EM structure; intact A-1(L) particles purified from infected Anabaena sp. PCC 7120, in SM buffer (50 mM Tris-HCl pH 7.5, 10 mM MgSO4, 100 mM NaCl); local reconstructions of portal, gp5-neck fiber, gp7-terminator, sheath-tube, baseplate and tail fibers"}, "[4]": {"molecular_target": "tail sheath protein gp9 of cyanophage A-1(L) (cyanophage A-1(L))", "test": "cryo-EM structure; intact A-1(L) particles purified from infected Anabaena sp. PCC 7120, in SM buffer (50 mM Tris-HCl pH 7.5, 10 mM MgSO4, 100 mM NaCl); local reconstructions of portal, gp5-neck fiber, gp7-terminator, sheath-tube, baseplate and tail fibers"}, "[5]": {"molecular_target": "baseplate wedge protein gp32 of cyanophage A-1(L) (cyanophage A-1(L))", "test": "cryo-EM structure; intact A-1(L) particles purified from infected Anabaena sp. PCC 7120, in SM buffer (50 mM Tris-HCl pH 7.5, 10 mM MgSO4, 100 mM NaCl); local reconstructions of portal, gp5-neck fiber, gp7-terminator, sheath-tube, baseplate and tail fibers"}, "[6]": {"molecular_target": "tail tube protein gp10 of cyanophage A-1(L) (cyanophage A-1(L))", "test": "cryo-EM structure; intact A-1(L) particles purified from infected Anabaena sp. PCC 7120, in SM buffer (50 mM Tris-HCl pH 7.5, 10 mM MgSO4, 100 mM NaCl); local reconstructions of portal, gp5-neck fiber, gp7-terminator, sheath-tube, baseplate and tail fibers"}, "[7]": {"molecular_target": "tape measure protein gp13 of cyanophage A-1(L) (cyanophage A-1(L))", "test": "cryo-EM structure; intact A-1(L) particles purified from infected Anabaena sp. PCC 7120, in SM buffer (50 mM Tris-HCl pH 7.5, 10 mM MgSO4, 100 mM NaCl); local reconstructions of portal, gp5-neck fiber, gp7-terminator, sheath-tube, baseplate and tail fibers"}, "[8]": {"molecular_target": "portal protein gp2 of cyanophage A-1(L) (cyanophage A-1(L))", "test": "cryo-EM structure; intact A-1(L) particles purified from infected Anabaena sp. PCC 7120, in SM buffer (50 mM Tris-HCl pH 7.5, 10 mM MgSO4, 100 mM NaCl); local reconstructions of portal, gp5-neck fiber, gp7-terminator, sheath-tube, baseplate and tail fibers"}, "[9]": {"molecular_target": "recombinant gp80-His6 of the neck fiber (cyanophage A-1(L))", "test": "SEC-MALS; recombinant neck fiber gp82-gp81-gp80-His6, 1 mg/mL, 100 uL, Superdex 200 Increase 10/300 GL in binding buffer"}, "[10]": {"molecular_target": "recombinant gp82 of the neck fiber gp82-gp81-gp80-His6 (cyanophage A-1(L))", "test": "SEC-MALS; recombinant neck fiber gp82-gp81-gp80-His6, 1 mg/mL, 100 uL, Superdex 200 Increase 10/300 GL in binding buffer"}, "[11]": {"molecular_target": "sheath initiator gp30 of cyanophage A-1(L) (cyanophage A-1(L))", "test": "cryo-EM structure; intact A-1(L) particles purified from infected Anabaena sp. PCC 7120, in SM buffer (50 mM Tris-HCl pH 7.5, 10 mM MgSO4, 100 mM NaCl); local reconstructions of portal, gp5-neck fiber, gp7-terminator, sheath-tube, baseplate and tail fibers"}, "[12]": {"molecular_target": "neck protein gp7 of cyanophage A-1(L) (cyanophage A-1(L))", "test": "cryo-EM structure; intact A-1(L) particles purified from infected Anabaena sp. PCC 7120, in SM buffer (50 mM Tris-HCl pH 7.5, 10 mM MgSO4, 100 mM NaCl); local reconstructions of portal, gp5-neck fiber, gp7-terminator, sheath-tube, baseplate and tail fibers"}, "[13]": {"molecular_target": "short tail fiber gp33 of cyanophage A-1(L) (cyanophage A-1(L))", "test": "cryo-EM structure; intact A-1(L) particles purified from infected Anabaena sp. PCC 7120, in SM buffer (50 mM Tris-HCl pH 7.5, 10 mM MgSO4, 100 mM NaCl); local reconstructions of portal, gp5-neck fiber, gp7-terminator, sheath-tube, baseplate and tail fibers"}, "[14]": {"molecular_target": "neck fiber protein gp82 of cyanophage A-1(L), in the virion (cyanophage A-1(L))", "test": "cryo-EM structure; intact A-1(L) particles purified from infected Anabaena sp. PCC 7120, in SM buffer (50 mM Tris-HCl pH 7.5, 10 mM MgSO4, 100 mM NaCl); local reconstructions of portal, gp5-neck fiber, gp7-terminator, sheath-tube, baseplate and tail fibers"}, "[15]": {"molecular_target": "long tail fiber gp34 of cyanophage A-1(L) (cyanophage A-1(L))", "test": "cryo-EM structure; intact A-1(L) particles purified from infected Anabaena sp. PCC 7120, in SM buffer (50 mM Tris-HCl pH 7.5, 10 mM MgSO4, 100 mM NaCl); local reconstructions of portal, gp5-neck fiber, gp7-terminator, sheath-tube, baseplate and tail fibers"}, "[16]": {"molecular_target": "central spike gp25 of cyanophage A-1(L) (cyanophage A-1(L))", "test": "cryo-EM structure; intact A-1(L) particles purified from infected Anabaena sp. PCC 7120, in SM buffer (50 mM Tris-HCl pH 7.5, 10 mM MgSO4, 100 mM NaCl); local reconstructions of portal, gp5-neck fiber, gp7-terminator, sheath-tube, baseplate and tail fibers"}, "[17]": {"molecular_target": "tube initiator gp18 of cyanophage A-1(L) (cyanophage A-1(L))", "test": "cryo-EM structure; intact A-1(L) particles purified from infected Anabaena sp. PCC 7120, in SM buffer (50 mM Tris-HCl pH 7.5, 10 mM MgSO4, 100 mM NaCl); local reconstructions of portal, gp5-neck fiber, gp7-terminator, sheath-tube, baseplate and tail fibers"}},
  "data": [
    {"substance": "tail terminator gp8 of cyanophage A-1(L) (natural protein)", "values": [
      {"measurement": "stoichiometry N", "setting": "[1]", "result": 6, "unit": "subunits"}
    ]},
    {"substance": "neck protein gp5 of cyanophage A-1(L) (natural protein)", "values": [
      {"measurement": "stoichiometry N", "setting": "[2]", "result": 15, "unit": "subunits"}
    ]},
    {"substance": "baseplate hub gp15 of cyanophage A-1(L) (natural protein)", "values": [
      {"measurement": "stoichiometry N", "setting": "[3]", "result": 3, "unit": "subunits"}
    ]},
    {"substance": "tail sheath protein gp9 of cyanophage A-1(L) (natural protein)", "values": [
      {"measurement": "stoichiometry N (subunits in a ring)", "setting": "[4]", "result": 6}
    ]},
    {"substance": "baseplate wedge protein gp31 of cyanophage A-1(L) (natural protein)", "values": [
      {"measurement": "stoichiometry N (gp31 per gp32)", "setting": "[5]", "result": 2}
    ]},
    {"substance": "tail tube protein gp10 of cyanophage A-1(L) (natural protein)", "values": [
      {"measurement": "stoichiometry N (subunits in a ring)", "setting": "[6]", "result": 6}
    ]},
    {"substance": "tape measure protein gp13 of cyanophage A-1(L) (natural protein)", "values": [
      {"measurement": "stoichiometry N", "setting": "[7]", "result": 6}
    ]},
    {"substance": "portal protein gp2 of cyanophage A-1(L) (natural protein)", "values": [
      {"measurement": "stoichiometry N", "setting": "[8]", "result": 12, "unit": "subunits"}
    ]},
    {"substance": "recombinant gp81 of the neck fiber (natural protein)", "values": [
      {"measurement": "stoichiometry N (gp81 trimers per gp80 trimer)", "setting": "[9]", "result": 14},
      {"measurement": "stoichiometry N (gp81 trimers per gp82 trimer)", "setting": "[10]", "result": 14}
    ]},
    {"substance": "sheath initiator gp30 of cyanophage A-1(L) (natural protein)", "values": [
      {"measurement": "stoichiometry N", "setting": "[11]", "result": 6, "unit": "subunits"}
    ]},
    {"substance": "neck protein gp7 of cyanophage A-1(L) (natural protein)", "values": [
      {"measurement": "stoichiometry N", "setting": "[12]", "result": 6, "unit": "subunits"}
    ]},
    {"substance": "short tail fiber gp33 of cyanophage A-1(L) (natural protein)", "values": [
      {"measurement": "stoichiometry N", "setting": "[13]", "result": 3, "unit": "subunits"}
    ]},
    {"substance": "neck fiber protein gp82 of cyanophage A-1(L), in the virion (natural protein)", "values": [
      {"measurement": "stoichiometry N", "setting": "[14]", "result": 3, "unit": "subunits"}
    ]},
    {"substance": "long tail fiber gp34 of cyanophage A-1(L) (natural protein)", "values": [
      {"measurement": "stoichiometry N", "setting": "[15]", "result": 3, "unit": "subunits"}
    ]},
    {"substance": "central spike gp25 of cyanophage A-1(L) (natural protein)", "values": [
      {"measurement": "stoichiometry N", "setting": "[16]", "result": 3, "unit": "subunits"}
    ]},
    {"substance": "tube initiator gp18 of cyanophage A-1(L) (natural protein)", "values": [
      {"measurement": "stoichiometry N", "setting": "[17]", "result": 6, "unit": "subunits"}
    ]}
  ]
}
